# Biological target: T1, major HBsAg (Hepatitis B virus genotype A2 subtype adw2, UniProt P03141)
# T1 construct: purchased Merck Sharp and Dohme Laboratories (gift of Dr. W. J. Miller, not bought); host or cells: yeast
# Assay: Binding of radiolabeled endonexin II to immobilized major HBsAg in the presence of endonexin II peptide fractions (F-peak inhibition assay)
# Design: species or system HBV
# Details: fractions of acid-hydrolysed human liver endonexin-II; triplicate; Figure 23A
# Description: Purified endonexin-II was treated according to the method as described in example 3. (Hydrolysis in 3% formic acid at 112°C for 4h). After treatment with formic acid, the protein digest was separated by reversed phase HPLC on a Vydac C-4 column (2.1 x 250 mm, Hesperia, CA, USA) as described in example 3. Peptide peaks were registered on a chart recorder and collected manually.
# Binding experiments were performed according to the method as described in example 1 and 5. However, binding of radiolabeled endonexin-II to immobilized major HBsAg was carried out in the presence of individual peak fractions of unlabeled digested human liver endonexin-II (see above). The experiment was performed in triplicate. […] Therefore, these peptide was considered as one of the important major HBsAg-binding epitopes on endonexin-II. By sequencing an identical peak fraction in a parallel experiment, peptides corresponding to peaks F and S were determined as amino acids 266 to 280 (peak F, DHTLIRVMVSRSEID) and amino acids 92-138 (peak S): […]) of human endonexin II (numbering according to Kaplan et al., 1988).
# T1 sequence (P03141 175-400): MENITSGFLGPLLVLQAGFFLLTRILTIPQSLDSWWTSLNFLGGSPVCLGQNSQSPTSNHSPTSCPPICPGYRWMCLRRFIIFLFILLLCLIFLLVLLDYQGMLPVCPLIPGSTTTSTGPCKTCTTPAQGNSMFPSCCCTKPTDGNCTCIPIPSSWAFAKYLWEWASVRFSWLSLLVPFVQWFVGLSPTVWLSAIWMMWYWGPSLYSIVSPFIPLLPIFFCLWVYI
sequence,measurement,value
"DEEKFITIFGTRSVSHLRKVFDKYMTISGFQIEETI [peak L, region encompassing amino acids 190 to 225 of human endonexin]",inhibition of binding of radiolabeled endonexin-II to major HBsAg by HPLC peak fraction,slightly lower binding inhibition capacity

# From patent publication EP0672136B1, “POLYPEPTIDES, DERIVED FROM ENDONEXIN 2, HAVING HEPATITIS B VIRUS RECEPTOR ACTIVITY AND THEIR USE IN DIAGNOSTIC AND PHARMACEUTICAL COMPOSITIONS” (priority 1992, dated 1994)
